Measurements as given in US20180258181A1 (Bayer, published 2018).
Numbering of substitutions follows the chain as printed. Blank lines part the entries; values can stand above or below the binder they belong to.

Key:
[1] = target: T1, human mesothelin (recombinant, soluble, purified; 40 kDa C-terminal polypeptide of the mesothelin precursor) (human, UniProt Q13421 296-598, limits assumed); test: SPR (Biacore), Fab on directly immobilized mesothelin
T1 construct: also called soluble mesothelin

[2] = target: T2, mesothelin on NCI-H226 cells (UniProt Q13421 296-598); test: FACS titration, IgG on NCI-H226 cells
T2 construct: whole, on cells; In the immunoblots the protein stood in a denatured cell extract
Method: FACS titration was performed in a 96 well microtiter plate, in which serial dilutions of the primary antibody in a volume of 80 μl of FACS buffer (3% FCS, 0.02% NaN₃ in PBS) were mixed with 20 μl of a cell suspension consisting of 10⁶ cells/ml which had been detached with accutase or trypsin/EDTA, and resuspended in FACS buffer. Incubation was performed at 4° C. for 1 hour with agitation. Cells were washed twice with FACS buffer and resuspended in 100 μl/well of anti-human PE conjugate solution in FACS buffer. Incubation and washing was performed as before. Analysis of cell-bound antibodies was done using the FACS Array device. EC₅₀ values were determined from fluorescence medians of duplicates using Prism 4.0 software (GraphPad) applying non-linear regression fit.

[3] = target: T3, mesothelin on CHO-A9 cells (CHO-K1 stably transfected with the GPI-anchored C-terminal part of mesothelin) (Homo sapiens (Human), UniProt Q13421 287-598, GPI anchor); test: live cell ELISA, IgG1 on CHO-A9 cells
T3 construct: In the immunoblots the protein stood in a denatured cell extract; also called mesothelin-expressing CHO-A9 cells

[4] = target: T3, mesothelin on CHO-A9 cells (CHO-K1 …); test: FACS with Scatchard analysis, IgG1 on CHO-A9 cells
[5] = target: T1, human mesothelin (recombinant, soluble, …); test: SPR (Biacore 3000), Fab on covalently immobilized human mesothelin
[6] = target: T4, murine mesothelin (recombinant) (murine, UniProt Q61468 298-600, limits assumed); test: SPR (Biacore 3000), Fab on covalently immobilized murine mesothelin
T4 construct: Covalently immobilized on the Biacore chip
T4 sequence (looked up): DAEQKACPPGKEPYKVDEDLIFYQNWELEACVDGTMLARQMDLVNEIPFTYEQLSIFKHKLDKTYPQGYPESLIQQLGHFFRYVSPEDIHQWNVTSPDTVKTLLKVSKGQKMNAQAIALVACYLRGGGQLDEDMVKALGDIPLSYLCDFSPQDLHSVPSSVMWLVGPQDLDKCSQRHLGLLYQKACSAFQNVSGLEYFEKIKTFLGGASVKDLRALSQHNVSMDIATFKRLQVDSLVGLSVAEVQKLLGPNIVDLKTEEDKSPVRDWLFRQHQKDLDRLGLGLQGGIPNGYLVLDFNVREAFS
Method: Shown in Table 5 are results of Biacore and ELISA studies showing cross-reactivity of antibodies of the invention to murine mesothelin. The kinetic constants kₒₙ and koff were determined with serial dilutions of the respective purified Fab fragment binding to covalently immobilized human or murine mesothelin using the Biacore 3000 instrument (Biacore, Uppsala, Sweden). Covalent antigen immobilization was achieved by a standard EDC-NHS coupling procedure. Kinetic measurements were done in PBS, pH 7.2 at a flow rate of […] using Fab concentration ranging from 1.5-500 nM. Injection time for each concentration was 1 min, followed by 3 min dissociation phase. For regeneration 5 μl 10 mM glycine buffer, pH 1.8 was used. All sensograms were fitted using the BIA evaluation software 3.1 (Biacore).

T1 sequence (Q13421 other isoform, or with tags, fused parts or gaps limits assumed): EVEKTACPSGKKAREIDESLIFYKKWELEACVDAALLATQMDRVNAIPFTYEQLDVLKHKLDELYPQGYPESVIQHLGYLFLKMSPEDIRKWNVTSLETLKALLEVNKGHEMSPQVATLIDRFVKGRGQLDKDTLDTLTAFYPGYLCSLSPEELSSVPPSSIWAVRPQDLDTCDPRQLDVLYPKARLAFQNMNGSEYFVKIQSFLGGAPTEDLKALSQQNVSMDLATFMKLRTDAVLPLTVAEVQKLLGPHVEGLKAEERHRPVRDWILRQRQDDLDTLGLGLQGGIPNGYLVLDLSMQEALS
T3 sequence (Q13421 other isoform, or with tags, fused parts or gaps limits assumed): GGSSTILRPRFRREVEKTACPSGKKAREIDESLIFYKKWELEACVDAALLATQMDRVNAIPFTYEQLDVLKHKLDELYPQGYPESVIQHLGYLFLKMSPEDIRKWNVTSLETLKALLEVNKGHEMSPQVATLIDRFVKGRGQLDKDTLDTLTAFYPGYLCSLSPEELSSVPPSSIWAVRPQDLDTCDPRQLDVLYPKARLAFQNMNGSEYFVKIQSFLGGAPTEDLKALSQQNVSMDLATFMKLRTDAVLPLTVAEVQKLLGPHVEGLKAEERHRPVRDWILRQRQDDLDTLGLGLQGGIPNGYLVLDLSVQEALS

B1: MF-J Fab (Fab, V domains shown)
VH: QVELVQSGAEVKKPGESLKISCKGSGYSFTNYWIGWVRQMPGKGLEWMGVIMPSDSYTRYSPSFQGQVTISADKSISTAYLQWSSLKASDTAMYYCARYGHGMYGGALDVWGQGTLVTVSS
VL: DIVLTQSPATLSLSPGERATLSCRASQSVRSSRLAWYQQKPGQAPRLLIYGASKRATGVPARFSGSGSGTDFTLTISSLEPEDFATYYCQQYYDFPPTFGQGTKVEIKR
notes: Purified Fab
Kd [1]: 9.2 nM
koff [1]: 0.0029 s⁻¹

B2: MOR06640 IgG (antibody, V domains shown)
VH: B1 VH with E3Q
VL: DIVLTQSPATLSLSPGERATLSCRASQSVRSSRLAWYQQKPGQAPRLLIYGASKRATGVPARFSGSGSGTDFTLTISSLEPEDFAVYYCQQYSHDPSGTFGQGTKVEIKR
EC50 [2]: 0.63 nM

B4: MOR07111 IgG (antibody, V domains shown)
VH: B1 VH with E3Q
VL: B1 VL with T86V, Y92F, D94S, F95K, P97I
EC50 [2]: 0.8 nM

B7: MOR06669 Fab (Fab, V domains shown)
VH: B1 VH with E3Q, V50I, M52W, S54I, Y57F, R59Q
VL: B1 VL
notes: Purified Fab
Kd [1]: 0.24 nM
koff [1]: 8.1e-05 s⁻¹

B12: MOR06643 IgG (antibody, V domains shown)
VH: QVQLVESGGGLVQPGGSLRLSCAASGFTFSDYAMSWVRQAPGKGLEWVSAIMYDSSSTFYADSVKGRFTISRDNSKNTLYLQMNSLRAEDTAVYYCARINYIYKGVHFDYWGQGTLVTVSS
VL: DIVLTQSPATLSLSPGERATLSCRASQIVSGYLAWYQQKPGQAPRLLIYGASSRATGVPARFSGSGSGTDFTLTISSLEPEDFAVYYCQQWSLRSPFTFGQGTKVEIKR
EC50 [2]: 0.23 nM

B13: MF-A Fab (Fab, V domains shown)
VH: QVQLVQSGAEVKKPGSSVKVSCKASGGTFSSYYFSWVRQAPGQGLEWMGGIIPKFGSANYAQKFQGRVTITADESTSTAYMELSSLRSEDTAVYYCARRTSMDYWGQGTLVTVSS
VL: DIALTQPASVSGSPGQSITISCTGTSSDVGGYNYVSWYQQHPGKAPKLMIYSVSKRPSGVSNRFSGSKSGNTASLTISGLQAEDEADYYCGAWAHMSLGKVFGGGTKLTVLG
notes: Purified Fab
Kd [1]: 19 nM
koff [1]: 0.079 s⁻¹
Kd [5]: 19 nM
koff [5]: 0.079 s⁻¹
Kd [6]: 670 nM
koff [6]: 0.27 s⁻¹

B14: MF-A IgG (antibody, V domains shown)
VH: B13 VH
VL: B13 VL
EC50 [3]: 0.8 nM
EC50 [4]: 0.05 nM

B15: MOR06657 IgG (antibody, V domains shown)
VH: B13 VH
VL: B13 VL with G91A, A92T, A94D, M96S, S97Q, L98M
EC50 [2]: 0.14 nM

B17: MF-226 Fab (Fab, V domains shown)
VH: QVELVQSGAEVKKPGASVKVSCKASGYTFTGNYINWVRQAPGQGLEWMGIINPHGGDTKYAQKFQGRVTMTRDTSISTAYMELSSLRSEDTAVYYCARWHHGTWIFDYWGQGTLVTVSS
VL: DIVLTQPPSVSGAPGQRVTISCSGSSSNIGSNYVSWYQQLPGTAPKLLIYNDNQRPSGVPDRFSGSKSGTSASLAITGLQSEDEADYYCSTYDRRTFSVFGGGTKLTVLG
notes: Purified Fab
Kd [1]: 58 nM
koff [1]: 0.038 s⁻¹
Kd [5]: 58 nM
koff [5]: 0.038 s⁻¹
Kd [6]: 1280 nM
koff [6]: 0.14 s⁻¹

B18: MOR06638 Fab (Fab, V domains shown)
VH: B17 VH with E3Q
VL: DIVLTQPPSVSGAPGQRVTISCSGSSSNIGSNYVSWYQQLPGTAPKLLIYNDNQRPSGVPDRFSGSKSGTSASLAITGLQSEDEADYYCSSWDRADGSYVFGGGTKLTVLG
notes: Purified Fab
Kd [1]: 16 nM
koff [1]: 0.0063 s⁻¹
Kd [5]: 16 nM
koff [5]: 0.0063 s⁻¹
Kd [6]: 320 nM
koff [6]: 0.04 s⁻¹

Continued, values first:

EC50 [3]: 3.9 nM
EC50 [4]: 0.11 nM
B3: MF-J IgG (antibody, V domains shown)
VH: B1 VH
VL: B1 VL

EC50 [2]: 0.41 nM
B5: MOR06669 IgG (antibody, V domains shown)
VH: B1 VH with E3Q, V50I, M52W, S54I, Y57F, R59Q
VL: B1 VL

EC50 [2]: 2.02 nM
B6: MOR06631 IgG (antibody, V domains shown)
VH: B1 VH with E3Q, V50F, M52W, S54V, Y57W, R59Q
VL: B1 VL

Kd [1]: 0.09 nM
koff [1]: 1.4e-05 s⁻¹
B8: MOR06631 Fab (Fab, V domains shown)
VH: B1 VH with E3Q, V50F, M52W, S54V, Y57W, R59Q
VL: B1 VL
notes: Purified Fab

EC50 [2]: 1.11 nM
B9: MOR07265 IgG (antibody, V domains shown)
VH: B1 VH with E3Q, V50F, M52W, S54V, Y57W, R59Q
VL: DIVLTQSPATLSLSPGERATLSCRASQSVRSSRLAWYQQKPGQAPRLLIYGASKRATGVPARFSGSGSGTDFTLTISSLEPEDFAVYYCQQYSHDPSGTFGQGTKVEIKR

EC50 [2]: 0.58 nM
B10: MOR06642 IgG (antibody, V domains shown)
VH: B1 VH with E3Q
VL: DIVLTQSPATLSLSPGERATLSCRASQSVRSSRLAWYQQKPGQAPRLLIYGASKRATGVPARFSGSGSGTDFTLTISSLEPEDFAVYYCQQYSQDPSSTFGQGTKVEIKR

Kd [1]: 0.36 nM
koff [1]: 0.00028 s⁻¹
B11: MOR06643 Fab (Fab, V domains shown)
VH: B12 VH
VL: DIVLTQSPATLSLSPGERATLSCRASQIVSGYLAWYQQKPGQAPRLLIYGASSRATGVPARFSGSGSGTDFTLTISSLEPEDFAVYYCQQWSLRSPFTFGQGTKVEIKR
notes: Purified Fab

Kd [1]: 0.95 nM
koff [1]: 0.0055 s⁻¹
Kd [5]: 0.95 nM
koff [5]: 0.0055 s⁻¹
Kd [6]: 360 nM
koff [6]: 0.16 s⁻¹
B16: MOR06657 Fab (Fab, V domains shown)
VH: B13 VH
VL: B13 VL with G91A, A92T, A94D, M96S, S97Q, L98M
notes: Purified Fab

EC50 [2]: 0.19 nM
B19: MOR06638 IgG (antibody, V domains shown)
VH: B17 VH with E3Q
VL: B18 VL

EC50 [2]: 0.44 nM
B20: MOR06626 IgG (antibody, V domains shown)
VH: B17 VH with E3Q, H54T, G55K, D57W, K59L
VL: B17 VL

Kd [1]: 0.67 nM
koff [1]: 0.0012 s⁻¹
Kd [5]: 0.67 nM
koff [5]: 0.0012 s⁻¹
Kd [6]: 6.7 nM
koff [6]: 0.0098 s⁻¹
B21: MOR06626 Fab (Fab, V domains shown)
VH: B17 VH with E3Q, H54T, G55K, D57W, K59L
VL: B17 VL
notes: Purified Fab
